# Data from patent publication US9944954B2, “Glycerol 3-phosphate dehydrogenase for butanol production” (BUTAMAX ADVANCED BIOFUELS LLC, priority 2013, dated 2018).
# B1: Drosophila melanogaster glycerol 3 phosphate dehydrogenase, isoform C (gi: 22945708) (Drosophila melanogaster) (protein)
# chain: MADKVNVCIVGSGNWGSAIAKIVGANAAALPEFEERVTMFVYEELIDGKKLTEIINETHENVKYLKGHKLPPNVVAVPDLVEAAKNADILIFVVPHQFIPNFCKQLLGKIKPNAIAISLIKGFDKAEGGGIDLISHIITRHLKIPCAVLMGANLANEVAEGNFCETTIGCTDKKYGKVLRDLFQANHFRVVVVDDADAVEVCGALKNIVACGAGFVDGLKLGDNTKAAVIRLGLMEMIRFVDVFYPGSKLSTFFESCGVADLITTCYGGRNRRVSEAFVTSGKTIEELEKEMLNGQKLQGPPTAEEVNYMLKNKGLEDKFPLFTAIHKICTNQLKPNDLIDCIRNHPEHMDTSIMPSPKL
# B2: Saccharomyces cerevisiae GPD1 (glycerol-3-phosphate dehydrogenase), wild type, SEQ ID NO: 195 (Saccharomyces cerevisiae S288C) (protein)
# chain: MSAAADRLNLTSGHLNAGRKRSSSSVSLKAAEKPFKVTVIGSGNWGTTIAKVVAENCKGYPEVFAPIVQMWVFEEEINGEKLTEIINTRHQNVKYLPGITLPDNLVANPDLIDSVKDVDIIVFNIPHQFLPRICSQLKGHVDSHVRAISCLKGFEVGAKGVQLLSSYITEELGIQCGALSGANIATEVAQEHWSETTVAYHIPKDFRGEGKDVDHKVLKALFHRPYFHVSVIEDVAGISICGALKNVVALGCGFVEGLGWGNNASAAIQRVGLGEIIRFGQMFFPESREETYYQESAGVADLITTCAGGRNVKVARLMATSGKDAWECEKELLNGQSAQGLITCKEVHEWLETCGSVEDFPLFEAVYQIVYNNYPMKNLPDMIEELDLHED
# notes: also native or codon-optimized GPD1 in yeast PNY2145-derived strains (T12); full length 391 aa
# B3: Archaeoglobus fulgidus DSM 4304 GPD (gene SEQ ID NO: 14) (Archaeoglobus fulgidus DSM 4304) (protein)
# chain: MIVSILGAGAMGSALSVPLVDNGNEVRIWGTEFDTEILKSISAGREHPRLGVKLNGVEIFWPEQLEKCLENAEVVLLGVSTDGVLPVMSRILPYLKDQYIVLISKGLIDFDNSVLTVPEAVWRLKHDLRERTVAITGPAIAREVAKRMPTTVVFSSPSESSANKMKEIFETEYFGVEVTTDIIGTEITSALKNVYSIAIAWIRGYESRKNVEMSNAKGVIATRAINEMAELIEILGGDRETAFGLSGFGDLIATFRGGRNGMLGELLGKGLSIDEAMEELERRGVGVVEGYKTAEKAYRLSSKINADTKLLDSIYRVLYEGLKVEEVLFELATFK
# B4: Beggiatoa alba GPD (SEQ ID NO: 17; SEQ ID NO: 193) (Beggiatoa alba B18LD) (protein)
# chain: MLSPSALLVLGAGSWGTALALALARRQYPIYLWGKDPAHVHTLQIQRCNQRFLPNAVFPDNLYAITDFVTLMPIVEDIIIVVPSHGFRETLKKIKPYITKNHRLCWATKGLEYQTGLLLHEVARAELGDNIPLAVLSGPSFAGEVAAALPTAVTIAAQDIENAHHVAQLFHQASFRAYTSNDMVGVQIGGAVKNVIAIAAGIADGLKMGANTRAALITRGLSEIVRLGIALGGQRETFMGLAGLGDLVLTCTDNQSRNRRFGYALAQGISLEAAQAQVGQVVEGIHAATITHQLAQQHGVEMPIVNHVNQVLTGQSTPLEAAQALLAREPKPEML
# B5: Kangiella koreensis GPD (SEQ ID NO: 18; SEQ ID NO: 194) (Kangiella koreensis DSM 16069) (protein)
# chain: MSAQLSFAVLGAGSYGTALAVLLARNGHSVQLWARNSQHVVEMQQAKQNTKYLPDVAFPDNLSVTDQIDVALKHHPIILVAVPSHAFRDTLYLIKPLVNQDSKLVWASKGLDPDSGDLLGNVLKNILGDNMPHAILSGPTFAKEMAIGMPTAITLAANNDDFAEQLALALHNERFRVYTSDDIVGVQVGGAVKNVVAIGAGIADGLGYGANARTALITRGLAEMTRLGVAAGGKQETFNGMAGMGDLVLTCTDNQSRNRRFGLALGKGANRDEAEHAIGQVVEGVRNAKEVKMLAERLGVEMPISDAIYRIIYEGVDARQAAHELLTRDLKSEG
# Columns and labels:
# [1] = test system: E. coli gpsA (glycerol-3-phosphate dehydrogenase); settings: cited from earlier work; for affinity for the cofactors NADH and NADPH: Edgar and Bell, JBC 255:3492-7 (1980)
# [2] = test system: Saccharomyces cerevisiae GPD1; settings: read-out: NADH KM; Albertyn et al. 1992; cited from earlier work
# Dunaliella viridis GPDH1 = settings: read-out: NADH KM; He et al, 2009; cited from earlier work
# Dunaliella viridis GPDH2 = settings: read-out: NADH KM; He et al, 2009; cited from earlier work
# [3] = test system: Drosophila melanogaster GPDH1 (flight muscle); settings: read-out: NADH KM; Niesel et al, 1982; cited from earlier work
# Jaculus orientalis GPD = settings: read-out: NADH KM; Berrada et al, 2002; cited from earlier work
# Leishmania mexicana GPD = settings: read-out: NADH KM; Marche et al, 2000; cited from earlier work
# [4] = test system: Saccharomyces phosphatase GPP1; settings: Norbeck, JBC 271:13875-81 (1996); cited from earlier work
# [5] = test system: Saccharomyces phosphatase GPP2; settings: Norbeck, JBC 271:13875-81 (1996); cited from earlier work
# [6] = test system: NC(=O)C1=CN([C@@H]2O[C@H](COP(=O)(O)OP(=O)(O)OC[C@H]3O[C@@H](n4cnc5c(N)ncnc54)[C@H](OP(=O)(O)O)[C@@H]3O)[C@@H](O)[C@H]2O)C=CC1; assay: cells, lysate or membranes named; settings: pH 6.8; 30.0 °C
# [7] = test system: NC(=O)C1=CN([C@@H]2O[C@H](COP(=O)(O)OP(=O)(O)OC[C@H]3O[C@@H](n4cnc5c(N)ncnc54)[C@H](O)[C@@H]3O)[C@@H](O)[C@H]2O)C=CC1; assay: cells, lysate or membranes named; settings: pH 6.8; 30.0 °C
# [8] = substrate: NC(=O)C1=CN([C@@H]2O[C@H](COP(=O)(O)OP(=O)(O)OC[C@H]3O[C@@H](n4cnc5c(N)ncnc54)[C@H](O)[C@@H]3O)[C@@H](O)[C@H]2O)C=CC1; assay: purified protein, by the assay type; settings: pH 6.8, 30.0 °C
# [9] = substrate: NC(=O)C1=CN([C@@H]2O[C@H](COP(=O)(O)OP(=O)(O)OC[C@H]3O[C@@H](n4cnc5c(N)ncnc54)[C@H](O)[C@@H]3O)[C@@H](O)[C@H]2O)C=CC1; assay: cells, lysate or membranes named; format: biochemical, Saccharomyces cerevisiae; settings: E. coli expressed, 30.0 °C
# Experimental: Glycerol-3-phosphate production was measured by LC/MS.
# The data used in this section are provided in Table 11, and includes measurements of the metabolic products and the in vitro measurements of GPD as described above.
# [10] = substrate: NC(=O)C1=CN([C@@H]2O[C@H](COP(=O)(O)OP(=O)(O)OC[C@H]3O[C@@H](n4cnc5c(N)ncnc54)[C@H](OP(=O)(O)O)[C@@H]3O)[C@@H](O)[C@H]2O)C=CC1; assay: cells, lysate or membranes named; settings: pH 6.8; 30.0 °C; remark: listed apart in the source
# [11] = substrate: NC(=O)C1=CN([C@@H]2O[C@H](COP(=O)(O)OP(=O)(O)OC[C@H]3O[C@@H](n4cnc5c(N)ncnc54)[C@H](O)[C@@H]3O)[C@@H](O)[C@H]2O)C=CC1; assay: cells, lysate or membranes named; settings: pH 6.8; 30.0 °C; remark: listed apart in the source
# [12] = substrate: NC(=O)C1=CN([C@@H]2O[C@H](COP(=O)(O)OP(=O)(O)OC[C@H]3O[C@@H](n4cnc5c(N)ncnc54)[C@H](OP(=O)(O)O)[C@@H]3O)[C@@H](O)[C@H]2O)C=CC1; assay: purified protein, by the assay type; settings: pH 6.8; 30.0 °C
# [13] = other: GPD1 WT_y, crude cell extract, pH 6.8, 1 mM dihydroxyacetone phosphate
molecule,measurement,setting,value
"NC(=O)C1=CN([C@@H]2O[C@H](COP(=O)(O)OP(=O)(O)OC[C@H]3O[C@@H](n4cnc5c(N)ncnc54)[C@H](O)[C@@H]3O)[C@@H](O)[C@H]2O)C=CC1 [NADH, reduced nicotinamide adenine dinucleotide]",affinity for the cofactors NADH and NADPH,[1],substantially the same affinity
same,Km,[2],23 µM
same,Km,Dunaliella viridis GPDH1,58.9 µM
same,Km,Dunaliella viridis GPDH2,59.2 µM
same,Km,[3],78 µM
same,Km,Jaculus orientalis GPD,32 µM
same,Km,Leishmania mexicana GPD,24 µM
"NC(=O)C1=CN([C@@H]2O[C@H](COP(=O)(O)OP(=O)(O)OC[C@H]3O[C@@H](n4cnc5c(N)ncnc54)[C@H](OP(=O)(O)O)[C@@H]3O)[C@@H](O)[C@H]2O)C=CC1 [NADPH, reduced nicotinamide adenine dinucleotide phosphate]",affinity for the cofactors NADH and NADPH,[1],substantially the same affinity
O=P(O)(O)OC[C@H](O)CO [glycerol-3-phosphate],product inhibition by glycerol-3-phosphate,[1],product inhibited
same,Michaelis constant,[4],3.1
same,Michaelis constant,[5],3.9
Rickettsia prowazekii str. BuV67-CWPP GPD (gene SEQ ID NO: 16; SEQ ID NO: 192) (Rickettsia prowazekii str. Madrid E),Km,[6],4 µM
same,Km,[7],664 µM
B1,Km,"[8]; other: one experiment, in parallel with Saccharomyces GPD1, E. coli expressed",5 µM
B2,Km,[9]; [13],13 µM
same,Vmax,[9]; [13],9000 µM/min
same,Km,"[9]; other: one experiment, in parallel with Drosophila isoform C, pH 6.8",5 µM
B3,Km,[10],7 µM
same,Km,[11],5 µM
B4,Km,[12],6 µM
same,Km,[8],101 µM
B5,Km,[12],1 µM
same,Km,[8],2018 µM
